Experimental data taken from US20140087995A1 (published 2014).
Numbered stars: 1 amine (or outer) side, 2 acyl side, 3 side chain; on linkers, the order of the positions; unused ones are H or OH. Bridge positions count the residues as written; N and C are the ends. Side chains are listed from the residue outwards. Ends that are not written are not given here. * marks the point of attachment. C20 diacid = O=C(O)CCCCCCCCCCCCCCCCCCC(=O)*; γGlu = O=C(O)[C@H](CCC(=O)[*:2])N[*:1]

T1: human calcitonin receptor (human, UniProt P30988 25-474)
T1 construct: whole, on cells; Membranes in a scintillation proximity assay (Assay VII); also called hCTR; hCT
T1 sequence (looked up): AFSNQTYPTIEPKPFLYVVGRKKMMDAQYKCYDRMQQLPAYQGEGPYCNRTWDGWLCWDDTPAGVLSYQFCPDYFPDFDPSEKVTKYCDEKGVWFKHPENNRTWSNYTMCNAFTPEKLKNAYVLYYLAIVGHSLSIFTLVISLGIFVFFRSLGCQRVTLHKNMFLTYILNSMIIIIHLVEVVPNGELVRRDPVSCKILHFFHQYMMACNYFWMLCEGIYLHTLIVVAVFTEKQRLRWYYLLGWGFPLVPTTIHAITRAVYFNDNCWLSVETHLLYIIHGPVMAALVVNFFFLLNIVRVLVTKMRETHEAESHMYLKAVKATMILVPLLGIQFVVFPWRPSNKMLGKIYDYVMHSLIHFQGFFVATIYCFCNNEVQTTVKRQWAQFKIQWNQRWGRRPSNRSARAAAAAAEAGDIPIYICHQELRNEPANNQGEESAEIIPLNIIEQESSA

T2: human amylin receptor (amylin 3(a) receptor: human calcitonin receptor with RAMP-3) (human, UniProt P30988 25-474; O60896 24-148)
T2 construct: whole, on cells; the functional assay (Assay IIa) used the whole cells; also called hAmylin-R; hAmylinR
T2 sequence (looked up) 1: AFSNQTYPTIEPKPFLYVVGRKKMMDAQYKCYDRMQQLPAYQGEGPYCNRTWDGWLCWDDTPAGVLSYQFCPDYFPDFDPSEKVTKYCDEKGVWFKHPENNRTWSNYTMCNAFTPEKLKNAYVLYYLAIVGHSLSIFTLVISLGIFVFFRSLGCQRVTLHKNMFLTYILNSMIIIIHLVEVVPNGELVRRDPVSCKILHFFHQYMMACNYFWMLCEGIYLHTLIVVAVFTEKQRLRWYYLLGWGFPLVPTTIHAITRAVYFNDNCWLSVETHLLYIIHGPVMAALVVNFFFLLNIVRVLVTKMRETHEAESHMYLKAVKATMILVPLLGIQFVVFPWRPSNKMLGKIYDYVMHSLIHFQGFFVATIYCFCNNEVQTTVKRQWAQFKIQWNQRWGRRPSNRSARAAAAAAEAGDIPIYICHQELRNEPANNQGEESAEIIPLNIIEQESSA
T2 sequence (looked up) 2: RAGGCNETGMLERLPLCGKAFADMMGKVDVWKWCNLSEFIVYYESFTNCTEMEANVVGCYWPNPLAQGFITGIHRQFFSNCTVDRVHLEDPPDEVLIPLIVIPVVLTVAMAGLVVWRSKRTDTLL

T3: human calcitonin receptor (human, UniProt P30988 25-474)
T3 sequence (looked up): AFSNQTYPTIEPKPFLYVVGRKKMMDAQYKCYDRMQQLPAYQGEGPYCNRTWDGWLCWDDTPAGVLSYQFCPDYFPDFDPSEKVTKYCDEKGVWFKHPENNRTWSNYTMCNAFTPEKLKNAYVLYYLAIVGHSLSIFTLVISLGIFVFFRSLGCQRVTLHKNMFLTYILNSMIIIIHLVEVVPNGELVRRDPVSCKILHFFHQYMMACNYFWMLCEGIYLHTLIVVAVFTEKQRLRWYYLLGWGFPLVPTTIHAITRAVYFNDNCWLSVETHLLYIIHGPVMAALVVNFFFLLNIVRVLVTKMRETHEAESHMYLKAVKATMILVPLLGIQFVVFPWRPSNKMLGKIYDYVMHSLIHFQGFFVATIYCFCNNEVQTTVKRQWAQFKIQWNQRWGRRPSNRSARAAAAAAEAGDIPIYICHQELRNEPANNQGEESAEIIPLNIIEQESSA

B1: N^ε1-[(4S)-4-carboxy-4-[[(4S)-4-carboxy-4-(19-carboxynonadecanoylamino)butanoyl]amino]butanoyl]-[Asp14,Arg17,Pro21,Pro26,Asp35]-h-amylin (peptide)
peptide: K([γGlu-γGlu-C20 diacid])CNTATCATQRLADFLRHSSPNFGAPLSSTNVGSDTY-NH2
modifications: disulfide 2-7; N-terminus assumed
SMILES: CC(C)C[C@H](NC(=O)[C@H](CCCNC(=N)N)NC(=O)[C@H](CCC(N)=O)NC(=O)[C@@H](NC(=O)[C@H](C)NC(=O)[C@@H]1CSSC[C@H](NC(=O)[C@@H](N)CCCCNC(=O)CC[C@H](NC(=O)CC[C@H](NC(=O)CCCCCCCCCCCCCCCCCCC(=O)O)C(=O)O)C(=O)O)C(=O)N[C@@H](CC(N)=O)C(=O)N[C@@H]([C@@H](C)O)C(=O)N[C@@H](C)C(=O)N[C@@H]([C@@H](C)O)C(=O)N1)[C@@H](C)O)C(=O)N[C@@H](C)C(=O)N[C@@H](CC(=O)O)C(=O)N[C@@H](Cc1ccccc1)C(=O)N[C@@H](CC(C)C)C(=O)N[C@@H](CCCNC(=N)N)C(=O)N[C@@H](Cc1c[nH]cn1)C(=O)N[C@@H](CO)C(=O)N[C@@H](CO)C(=O)N1CCC[C@H]1C(=O)N[C@@H](CC(N)=O)C(=O)N[C@@H](Cc1ccccc1)C(=O)NCC(=O)N[C@@H](C)C(=O)N1CCC[C@H]1C(=O)N[C@@H](CC(C)C)C(=O)N[C@@H](CO)C(=O)N[C@@H](CO)C(=O)N[C@H](C(=O)N[C@@H](CC(N)=O)C(=O)N[C@H](C(=O)NCC(=O)N[C@@H](CO)C(=O)N[C@@H](CC(=O)O)C(=O)N[C@H](C(=O)N[C@@H](Cc1ccc(O)cc1)C(N)=O)[C@@H](C)O)C(C)C)[C@@H](C)O
notes: also called compound 1
B2: N^ε1-[(4S)-4-carboxy-4-[[(4S)-4-carboxy-4-(19-carboxynonadecanoylamino)butanoyl]amino]butanoyl]-[Asp14,Arg17,Pro22,Pro26,Asp35]-h-amylin (peptide)
peptide: K([γGlu-γGlu-C20 diacid])CNTATCATQRLADFLRHSSNPFGAPLSSTNVGSDTY-NH2
modifications: disulfide 2-7; N-terminus assumed
SMILES: CC(C)C[C@H](NC(=O)[C@H](CCCNC(=N)N)NC(=O)[C@H](CCC(N)=O)NC(=O)[C@@H](NC(=O)[C@H](C)NC(=O)[C@@H]1CSSC[C@H](NC(=O)[C@@H](N)CCCCNC(=O)CC[C@H](NC(=O)CC[C@H](NC(=O)CCCCCCCCCCCCCCCCCCC(=O)O)C(=O)O)C(=O)O)C(=O)N[C@@H](CC(N)=O)C(=O)N[C@@H]([C@@H](C)O)C(=O)N[C@@H](C)C(=O)N[C@@H]([C@@H](C)O)C(=O)N1)[C@@H](C)O)C(=O)N[C@@H](C)C(=O)N[C@@H](CC(=O)O)C(=O)N[C@@H](Cc1ccccc1)C(=O)N[C@@H](CC(C)C)C(=O)N[C@@H](CCCNC(=N)N)C(=O)N[C@@H](Cc1c[nH]cn1)C(=O)N[C@@H](CO)C(=O)N[C@@H](CO)C(=O)N[C@@H](CC(N)=O)C(=O)N1CCC[C@H]1C(=O)N[C@@H](Cc1ccccc1)C(=O)NCC(=O)N[C@@H](C)C(=O)N1CCC[C@H]1C(=O)N[C@@H](CC(C)C)C(=O)N[C@@H](CO)C(=O)N[C@@H](CO)C(=O)N[C@H](C(=O)N[C@@H](CC(N)=O)C(=O)N[C@H](C(=O)NCC(=O)N[C@@H](CO)C(=O)N[C@@H](CC(=O)O)C(=O)N[C@H](C(=O)N[C@@H](Cc1ccc(O)cc1)C(N)=O)[C@@H](C)O)C(C)C)[C@@H](C)O
notes: also called compound 3

Tests used:
[1] = target: T1, human calcitonin receptor; assay: SPA competition binding, displacement of 125I-calcitonin from membranes with human calcitonin receptor (Assay VII)
Procedure: Membranes were prepared in the following way; the cells were rinsed with PBS and incubated with Versene for approximately 5 min before harvesting. The cells were flushed with PBS and the cell-suspension was centrifuged for 5 min at 1000 rpm. Cells were homogenized (Ultrathurrax) in a buffer containing 20 mM Na-HEPES and 10 mM EDTA (pH 7.4) and centrifuged at 20.000 rpm for 15 min. The resulting pellet was resuspended, homogenized and centrifuged (20.000 rpm, 15 min) in a buffer containing 20 mM Na-HEPES and 0.1 mM EDTA (pH 7.4, buffer 2). The resulting pellet was resuspended in buffer 2 and protein concentration was measured (BCA protein Assay, Pierce). The homogenate was kept cold during the whole procedure. The membranes were kept at −80° C. until use. Assay was performed in a 384 well Optiplate (PerkinElmer) in a total volume of 40 ul. Membranes were mixed with SPA beads. Final concentration of membranes 35 ng/μL final and Final concentration of SPA beads was 0.05 mg/well. Test-compounds were dissolved in DMSO and further diluted in assay buffer (50 mM Hepes, pH 7.4, 1 mM CaCl2, 5 mM MgCl₂, 0.1% OA and 0.02% Tween20). […] The final mixture was incubated for 120 min with shaking at 400 rpm at 25° C. prior to centrifugation (1500 rpm, 10 min). Samples were analyzed on TopCounter™ (Packard). The […] was calculated using (one site binding competition analysis) GraphPad Prism5 as a measure of receptor affinity.

[2] = target: T1, human calcitonin receptor; assay: ratio of IC50 at human calcitonin receptor to IC50 at human amylin receptor (reference), SPA binding assays
Procedure: The resulting pellet was resuspended, homogenized and centrifuged (20.000 rpm, 15 min) in a buffer containing 20 mM Na-HEPES and 0.1 mM EDTA (pH 7.4, buffer 2). The resulting pellet was resuspended in buffer 2 and protein concentration was measured (BCA protein Assay, Pierce). The homogenate was kept cold during the whole procedure. The membranes were kept at −80° C. until use. The assay was performed in a 384 well Optiplate (PerkinElmer) in a total volume of 40 ul. Membranes were mixed with SPA beads. Final concentration of membranes 35 ng/μL final and SPA beads was 0.05 mg/well. Test-compounds were dissolved in DMSO and further diluted in assay buffer (50 mM Hepes, pH 7.4, 1 mM CaCl2, 5 mM MgCl₂, 0.1% OA and 0.02% Tween20). […] The final mixture was incubated with shaking at 400 rpm for 120 min at 25° C. prior to centrifugation (1500 rpm, 10 min). Samples were analyzed on TopCounter™ (Packard). The IC₅₀ was calculated using (one site binding competition analysis) GraphPad Prism5 as a measure of receptor affinity.
Membranes were prepared in the following way; the cells were rinsed with PBS and incubated with Versene for approximately 5 min before harvesting. The cells were flushed with PBS and the cell-suspension was centrifuged for 5 min at 1000 rpm. Cells were homogenized (Ultrathurrax) in a buffer containing 20 mM Na-HEPES and 10 mM EDTA (pH 7.4) and centrifuged at 20.000 rpm for 15 min. The resulting pellet was resuspended, homogenized and centrifuged (20.000 rpm, 15 min) in a buffer containing 20 mM Na-HEPES and 0.1 mM EDTA (pH 7.4, buffer 2). The resulting pellet was resuspended in buffer 2 and protein concentration was measured (BCA protein Assay, Pierce). The homogenate was kept cold during the whole procedure. The membranes were kept at −80° C. until use. Assay was performed in a 384 well Optiplate (PerkinElmer) in a total volume of 40 ul. Membranes were mixed with SPA beads.

[3] = target: T2, human amylin receptor (amylin 3(a) …); assay: SPA competition, displacement of 125I-rat amylin from membranes of BHK cells with the human amylin 3(a) receptor
Procedure: The binding assay was performed using scintillation proximity assay (SPA) beads (RPNQ0001) from PerkinElmer and cell membranes from the Amylin 3(a)/CRE-luc cells (as described in Assay (II)) were used. Membranes were prepared in the following way; the cells were rinsed with PBS and incubated with Versene for approximately 5 min before harvesting. The cells were flushed with PBS and the cell-suspension was centrifuged for 5 min at 1000 rpm. Cells were homogenized (ultrathurrax) in a buffer containing 20 mM Na-HEPES and 10 mM EDTA (pH 7.4) and centrifuged at 20.000 rpm for 15 min. The resulting pellet was resuspended, homogenized and centrifuged (20.000 rpm, 15 min) in a buffer containing 20 mM Na-HEPES and 0.1 mM EDTA (pH 7.4, buffer 2). The resulting pellet was resuspended in buffer 2 and protein concentration was measured (BCA protein Assay, Pierce). The homogenate was kept cold during the whole procedure. The membranes were kept at −80° C. until use. The assay was performed in a 384 well Optiplate (PerkinElmer) in a total volume of 40 ul. Membranes were mixed with SPA beads. Final concentration of membranes 35 ng/μL final and SPA beads was 0.05 mg/well. Test-compounds were dissolved in DMSO and further diluted in assay buffer (50 mM Hepes, pH 7.4, 1 mM CaCl2, 5 mM MgCl₂, 0.1% OA and 0.02% Tween20). […] The final mixture was incubated with shaking at 400 rpm for 120 min at 25° C. prior to centrifugation (1500 rpm, 10 min). Samples were analyzed on TopCounter™ (Packard). The IC₅₀ was calculated using (one site binding competition analysis) GraphPad Prism5 as a measure of receptor affinity.

[4] = target: T2, human amylin receptor (amylin 3(a) …); assay: cell-based or functional assay
[5] = target: T3, human calcitonin receptor; assay: cell-based or functional assay

| Binder | IC50 [1] | Ratio hCT/hAmylin binding [2] | IC50 [3] | hAmylin-R funct. EC50 [4] | Ratio hCT/hAmylin funct. [5] | hCTR funct. EC50 [5] |
| --- | --- | --- | --- | --- | --- | --- |
| K([γGlu-γGlu-C20 diacid])CNTATCATQRLADFLRHSSPNFGAIPSSTNVGPRTY-NH2 (disulfide 2-7 (inferred), also called compound 130) | 127 nM | 280 | – | – | – | – |
| B1 | – | – | 1.18 nM | 0.224 nM | 12 | 2.7 nM |
| B2 | – | – | 1.13 nM | 0.205 nM | 6.7 | 1.38 nM |
| K([γGlu-C20 diacid])CNTATCATQRLADFLRHSSPNFGAIPSSTNVGPRTY-NH2 (disulfide 2-7 (inferred)) | 42.5 nM | 151 | – | – | – | – |
| K([γGlu-γGlu-C20 diacid])CNTATCATQRLAEFLRHSSPNFGAIPSSTNVGPHTY-NH2 (disulfide 2-7 (inferred)) | 10.3 nM | 27.3 | – | – | – | – |
| K([γGlu-C20 diacid])CNTATCATQRLADFLRHSSPNFGAIPSSTNVGPETY-NH2 (disulfide 2-7 (inferred)) | 3.27 nM | 16.7 | – | – | – | – |
| K([γGlu-C20 diacid])CNTATCATQRLAEFLRHSSPNFGAIPSSTNVGSHTY-NH2 (disulfide 2-7 (inferred)) | 26.1 nM | 26.4 | – | – | – | – |
| K([γGlu-γGlu-C20 diacid])CNTATCATQRLAEFLRHSSPNFGAIPSSTNVGPNTF-NH2 (disulfide 2-7 (inferred)) | 2.73 nM | 18 | – | – | – | – |
